The experiment deals with C-terminal NanoLuc luciferase fragment, residues 66–171 (66C), bacterial construct. The experiment can be described thus: split reporter.

“N-terminal NanoLuc luciferase fragment, residues 1–65 (N65), bacterial construct (domain or fragment)” showed a fold increase in luminescence over 66C alone of 10 fold.
